Test results: the supplement of paper PMC12764529
± gives the half width of the 95% confidence interval.

Assay: folding stability dG unfold (combined trypsin and chymotrypsin); higher = more stable
In short: (§1)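 Designed mini-proteins (under 80 residues, no cysteine) in a PA-tagged cDNA display construct were digested with trypsin and chymotrypsin. Each protease was used at 11 concentrations (threefold dilutions) plus a no-protease condition, followed by sequencing. K50 was inferred by Bayesian fitting of sequencing counts, and unfolding free energy was derived against a sequence-predicted unfolded-state K50 and a shared folded-state K50, per protease or combined. Only designs with AlphaFold2 dimer inter-PAE above 15 were kept.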

Row | Sequence | folding stability dG unfold [kcal/mol]
1 | SAGKKKKITIEIVIKPKTLEELENKIKEIAKKLGLKKIEKIEIVKIEKDKNGKIKKVVIKITLTEEALKSAG [r5_575_TrROS_Hall] | 2.61 ± 0.31
2 | SAGGSAGGSASNVKILGLVSVDPETGLVRLAAYDPETGKVLYFIAPNADGEPLLLEVEENPGSAGGSAGGSA [r18_296_TrMRF] | 2.21 ± 0.071
3 | SAGGSAGGSAGGPKVFKFKDKIIVIYPNKKPNEEVKVVVKNPKTGKKEEFKIKIPKELLKSAGGSAGGSAGG [r7_834_TrMRF] | 0.847 ± 0.11
4 | SAGGSAGGSKLEEILKKLPPNAKITIEKDEETNVYTITITNKNGEKYTFTFSKEEVKKLLEKLSAGGSAGGS [r12_174_TrROS_Hall] | 4.62 ± 0.22
5 | SAGGSAGGSGLPIVVQEDGTLVLRREGDGTAAFDVVPLEEFERLPEEFLESLPASALPDPLPLSAGGSAGGS [r12_793_JUSTAS] | 0.882 ± 0.1
6 | SAGPIKELLEFLKANPDAVVEFEFTLPNGAKVKIKAKKFPDAVVLEVTTIDPNNKKPITGTITIPLPESAGG [r19_143_TrMRF] | 3.81 ± 0.13
7 | SAGGSAMREIRVGDTVVRILSIDPSTGEVHIAVREDLPPETIEAARRALEEAGLRFRVEPVPEELLSAGGSA [r15_570_TrMRF] | 2.15 ± 0.053
8 | SAGGSAGGSKKPVLAKIAILNSGSPEVAEELAKRLAAELGLSPDEVKVELHVIPVTAPGELLFSAGGSAGGS [r12_1066_TrMRF] | 0.416 ± 0.043
9 | SAGGMKFELVARFDSKEAAEKAVEELVRELFPDFDVEVEVEVIEDPETGTFLAIATITLPLPGPEDLSAGGS [r8_17_TrMRF] | 4.19 ± 0.2
10 | SAGGPKVVRIRYTMPPDQARDFIEELFGRPMSADDIADKLPPGFKVGIRAHPNPNGHVTFEIWIKLPDSAGG [r13_869_TrROS] | 2.93 ± 0.11
11 | SAGGMPYTLVGEKTESLGEGNTVVTKTYKPPDGTYTVETTTITTDPENGSTSTTSTTTTIPPNTPEALSAGG [r19_173_JUSTAS] | -0.1 ± 0.31
12 | SAGGSAKIEEIASLPAEEIAEAFGLTVISATVERFEDGTVVLTVEIAPPLGPPIRVTFVFGVDPEKSAGGSA [r15_805_TrMRF] | 3.75 ± 0.058
13 | SAGGSAGGSAMRLRLKVKPGEKVRIRVERDGKVYEFEVTVEEGADEIEIDLPPGVKRIEIEPSAGGSAGGSA [r18_124_TrROS_Hall] | 3.62 ± 0.17
14 | SAGGSAGGKKKKKPPKKKYFYVEIEIELTPEEIEKLKELFPDVKVEVEEKDGKLRVRITVRVKLSAGGSAGG [r6_685_TrROS_Hall] | 3.26 ± 0.087
15 | SAGGKIKIQFNGQEFTITEFEIIEPQPNKGGGPYYRIRIKFPNGPMEIMIPPNMPPEIKPGDTFTIASAGGS [r16_638_TrROS] | 1.93 ± 0.066
16 | MRITLELEDGTRVEIEFERKEDGTLVVRIKVTRKDGKTVEIEVVVRSKDGKITPEELERALREALEELLKKS [r1_124_TrROS_Hall] | 4.21 ± 0.38
17 | SMKIPGMSAKEKLRKAIEALLEEAEKKGIKEITIKIYNKKTKKPIKEIKFKSKEELLKKIEEGDEVEIEFSA [r9_718_TrROS_Hall] | 1.83 ± 0.13
18 | SAGGSAGGSAGGSKEIKVEVEEKDGKLTVTVTFPDGSKVEIEGMSAEEVEKLVKELAKKSAGGSAGGSAGGS [r4_383_TrROS_Hall] | 2.06 ± 0.061
19 | SAGGSAGGSAGDGMIEVKVEFERLFFDENGNVTKKEKVDEIIKVPPVTIDTSTGKLTPLPSAGGSAGGSAGG [r17_413_JUSTAS] | 0.284 ± 0.073
20 | SAGGSAGGSSVIEVTFSDGSKALFFPGSQKVVVYNPSTKKKIVIPPGVSPETALKAIAEGKPISAGGSAGGS [r12_832_TrMRF] | 0.671 ± 0.13
21 | SAGGSVEVTKTESKGPGGTVTVEALKTVTKFDEKGNPVKEEEVRITRTETYDPNTGKVTTTTTVEGSAGGSA [r2_220_JUSTAS] | 0.487 ± 0.067

Assay: folding stability dG unfold from trypsin proteolysis; higher = more stable
In short: as §1

Row | Sequence | folding stability dG unfold [kcal/mol]
22 | SAGGSAGGKTIEITIKLEDGKELKIKIDSPEELDKITSVELIGPGKIKITVNGKTIEITIKPKPSAGGSAGG [r6_206_TrROS_Hall] | 3.45 ± 0.14
23 | SAGGSAGGSAGPVPKTITVTVSSPEEAEAAVKEIKPKYPNVKVERKKVGDKIVLTITVEESAGGSAGGSAGG [r17_319_JUSTAS] | 1.86 ± 0.11
24 | SAGKITITVEKNEDGELTVTIRIEKDGKPIEEITFESEEEALEAAKKLAEELKKKYPDLKIEVEIVPRPSAG [r5_383_TrROS_Hall] | 3.47 ± 0.27
25 | SAGGSAGGSASLSPEKKVTIKTTVPQPTPPAVTTTLTGQFPSSLTLEELAEKDPNATVSITGSAGGSAGGSA [r18_279_JUSTAS] | 0.221 ± 0.059
26 | SAGGSAGGGDLVVYRLEVRRFEPGTGRLVETRSRTVVVPKEDLPELLERIPPGYEVLRIEAFPESAGGSAGG [r6_776_TrMRF] | 0.636 ± 0.067
27 | SVVLDVPYENRPDLLATIRALVAEKAPPVVVFVEAPEAERARLRRELEALGFTVEPTPVPNRYRITFRPASA [r9_600_TrMRF] | 3.15 ± 0.085
28 | SAGGSAGGSKIEITVKTKEELLEAIRKLAEEKGYEIVSIKIEKLPDGTYKVTIEIRKNDPLLKSAGGSAGGS [r12_647_TrROS_Hall] | 1.35 ± 0.083
29 | SAMEINIVLVAPPESPEALELAKEVAELVAKEIEEEGIPVEVEVEKIEFFRLPDGSIVVLIPIKVKPPESAG [r14_48_TrMRF] | 1.89 ± 0.1
30 | SAGGSAGGSAGEPEYVRVRIRVRRRVRNKETGKWEEKEVELTLVFPSKEEALKALEELGLSAGGSAGGSAGG [r11_984_TrROS_Hall] | 3.99 ± 0.083
31 | SAGGSAGGSAGGMPIPVTITVSDPATGTTKVVKTVLVTSPEKLEEVISKLPEGKKYTVVESAGGSAGGSAGG [r7_307_JUSTAS] | -0.415 ± 0.098
